According to patent publication US20160120976A1:

Legend:
CD74 (human) = CD74 (human) (UniProt P04233); assay: cell-based or functional assay
CD20 (human) = CD20 (human) (UniProt P11836); assay: cell-based or functional assay
CD20 (human), sequence (P11836 whole entry): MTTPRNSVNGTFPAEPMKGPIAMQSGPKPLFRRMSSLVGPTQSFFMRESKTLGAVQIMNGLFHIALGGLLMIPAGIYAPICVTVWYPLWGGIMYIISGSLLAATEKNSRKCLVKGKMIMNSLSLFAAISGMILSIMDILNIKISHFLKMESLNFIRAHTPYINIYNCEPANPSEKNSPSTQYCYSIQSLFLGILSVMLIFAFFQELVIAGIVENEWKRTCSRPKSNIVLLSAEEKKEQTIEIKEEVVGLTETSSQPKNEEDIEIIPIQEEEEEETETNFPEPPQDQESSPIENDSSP

CD74 (human), sequence (P04233 whole entry): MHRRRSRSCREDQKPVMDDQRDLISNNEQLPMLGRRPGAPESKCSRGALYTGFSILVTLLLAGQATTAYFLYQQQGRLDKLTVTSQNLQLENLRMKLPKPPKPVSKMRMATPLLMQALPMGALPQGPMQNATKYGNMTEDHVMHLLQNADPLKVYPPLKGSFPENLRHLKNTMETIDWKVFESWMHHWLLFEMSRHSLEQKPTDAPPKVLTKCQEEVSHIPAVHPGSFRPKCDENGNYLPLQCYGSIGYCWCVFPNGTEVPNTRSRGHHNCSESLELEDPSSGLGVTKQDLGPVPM

EC50 (nM), MTS cell proliferation assay, Daudi (CD74 (human)) [nM]	EC50 (nM), MTS cell proliferation assay, Granta-519 (CD74 (human)) [nM]	EC50 (nM), MTS cell proliferation assay, JeKo-1 (CD74 (human)) [nM]	EC50 (nM), MTS cell proliferation assay, Mino (CD74 (human)) [nM]	EC50 (nM), MTS cell proliferation assay, Raji (CD74 (human)) [nM]	EC50, MTS assay, in CLL lines WAC, MEC-1, ALL lines REH-1, MN60 and MM lines CAG, RPMI8226, KMS11, KMS12-BM, KMS12-PE (CD74 (human)) [nM]	Percent inhibition (%) at 100 nM, MTS assay, Granta-519 (CD74 (human)) [%]	Percent inhibition (%) at 100 nM, MTS assay, JeKo-1 (CD74 (human)) [%]	Percent inhibition (%) at 100 nM, MTS assay, Mino (CD74 (human)) [%]	Percent inhibition (%) at 100 nM, MTS assay, Raji (CD74 (human)) [%]	homotypic adhesion (%), JeKo-1, 2 h, 10 nM (CD74 (human)) [%]	homotypic adhesion (%), JeKo-1, 24 h, 10 nM (CD74 (human)) [%]	EC50 (nM), MTS cell proliferation assay, Daudi (CD20 (human)) [nM]	EC50 (nM), MTS cell proliferation assay, Granta-519 (CD20 (human)) [nM]	EC50 (nM), MTS cell proliferation assay, JeKo-1 (CD20 (human)) [nM]	EC50 (nM), MTS cell proliferation assay, Mino (CD20 (human)) [nM]	EC50 (nM), MTS cell proliferation assay, Raji (CD20 (human)) [nM]	Percent inhibition (%) at 100 nM, MTS assay, Granta-519 (CD20 (human)) [%]	Percent inhibition (%) at 100 nM, MTS assay, JeKo-1 (CD20 (human)) [%]	Percent inhibition (%) at 100 nM, MTS assay, Raji (CD20 (human)) [%]	Substance	other results
5.3	2	3	13.7	0.3	> 100	55	70	80	50	90	> 95	5.3	2	3	13.7	0.3	55	70	50	20-(74)-(74) bispecific hexavalent antibody (HexAb): CH3-AD2-IgG-veltuzumab with a pair of stabilized dimers of CH1-DDD2-Fab-milatuzumab (bispecific antibody)	Percent inhibition (%) at 100 nM, MTS assay, Mino (CD20 (human)): 80%; homotypic adhesion (%), JeKo-1, 2 h, 10 nM (CD20 (human)): 90%; homotypic adhesion (%), JeKo-1, 24 h, 10 nM (CD20 (human)): > 95%
1.2	0.6	2	1.2	0.3	> 100	65	90	100	50	90	> 95	1.2	0.6	2	1.2	0.3	65	90	50	74-(20)-(20) bispecific hexavalent antibody (HexAb): CH3-AD2-IgG-milatuzumab with a pair of stabilized dimers of CH1-DDD2-Fab-veltuzumab (bispecific antibody)	homotypic adhesion (%), JeKo-1, 2 h, 10 nM (CD20 (human)): 90%; homotypic adhesion (%), JeKo-1, 24 h, 10 nM (CD20 (human)): > 95%
